The record followed here is PMC4050729.

Assay [1] deals with ribosome nascent chain complex bearing the 3A7L signal sequence, nascent chain of 85 residues, Cm-labeled (UniProt P0ADZ0). Briefly: FRET or BRET.
Assay [2] shares this target. The assay is described as follows: other fluorescence titration.

Take “SRP-FtsY complex formed with mutant SRP19/21E (early complex with GDP, closed complex with GppNHp) (from UniProt P0AGD7;P10121)”: in assay [1], the fold weaker binding than wt SRP in the closed complex stood at 6 fold and the fold weaker binding than wt SRP in the early complex was > 300 fold.
In turn, “SecYEG translocon, cysteineless, solubilized in 0.02% DDM (from UniProt P0AGA2;P0AG96;P0AG99) (complex)” registered an EC50 in assay [2] of 39 nM.
